# Like-named read-outs stand apart in the source and are kept apart here.
# What was measured:
# [1] = biological target: RGD peptide (cyclo(Arg-Gly-Asp-D-Phe-Cys))
# [2] = biological target: RGD peptide (cyclo(Arg-Gly-Asp-D-Phe-Cys)); test: STM junction, bare probe (NA), RGD peptide on substrate only, gap Z0 + 2 nm
# [3] = biological target: RGD peptide (cyclo(Arg-Gly-Asp-D-Phe-Cys)); test: cell-based or functional assay
# [4] = biological target: RGD peptide (cyclo(Arg-Gly-Asp-D-Phe-Cys)); test: method not stated
# [5] = biological target: RGD peptide (cyclo(Arg-Gly-Asp-D-Phe-Cys)); remark: listed apart in the source
# [6] = biological target: RGD peptide (cyclo(Arg-Gly-Asp-D-Phe-Cys)); remark: listed apart in the source
# Chain of αVβ3 Integrin (receptor) (P06756 31-992): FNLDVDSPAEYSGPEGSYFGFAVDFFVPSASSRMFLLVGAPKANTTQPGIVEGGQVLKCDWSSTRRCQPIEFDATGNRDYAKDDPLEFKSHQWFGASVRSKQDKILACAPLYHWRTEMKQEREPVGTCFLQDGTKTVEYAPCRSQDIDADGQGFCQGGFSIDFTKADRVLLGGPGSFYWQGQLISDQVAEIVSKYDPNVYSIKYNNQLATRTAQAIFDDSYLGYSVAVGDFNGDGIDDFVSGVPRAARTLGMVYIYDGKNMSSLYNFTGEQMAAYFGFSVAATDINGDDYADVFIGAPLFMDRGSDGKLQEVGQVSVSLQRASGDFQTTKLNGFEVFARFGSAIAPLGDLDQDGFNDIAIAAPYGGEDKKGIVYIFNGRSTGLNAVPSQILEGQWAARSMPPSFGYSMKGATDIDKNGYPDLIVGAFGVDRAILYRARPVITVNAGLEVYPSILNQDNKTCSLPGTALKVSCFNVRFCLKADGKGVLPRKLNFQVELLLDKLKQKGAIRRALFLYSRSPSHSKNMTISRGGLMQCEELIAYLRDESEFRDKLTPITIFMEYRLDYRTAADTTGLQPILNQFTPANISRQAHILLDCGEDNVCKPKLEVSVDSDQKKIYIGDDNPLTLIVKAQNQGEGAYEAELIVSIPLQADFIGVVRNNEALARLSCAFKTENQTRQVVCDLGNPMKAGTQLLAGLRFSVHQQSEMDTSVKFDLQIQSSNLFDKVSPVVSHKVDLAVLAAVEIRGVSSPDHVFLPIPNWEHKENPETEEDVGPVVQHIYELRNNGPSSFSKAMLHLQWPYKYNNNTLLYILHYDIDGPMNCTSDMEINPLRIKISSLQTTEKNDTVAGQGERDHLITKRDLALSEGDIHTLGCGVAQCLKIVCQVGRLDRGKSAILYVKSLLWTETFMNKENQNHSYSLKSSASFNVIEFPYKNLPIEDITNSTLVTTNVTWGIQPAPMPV
# Chain of αVβ3 Integrin (receptor) (P05106 27-718, further chain): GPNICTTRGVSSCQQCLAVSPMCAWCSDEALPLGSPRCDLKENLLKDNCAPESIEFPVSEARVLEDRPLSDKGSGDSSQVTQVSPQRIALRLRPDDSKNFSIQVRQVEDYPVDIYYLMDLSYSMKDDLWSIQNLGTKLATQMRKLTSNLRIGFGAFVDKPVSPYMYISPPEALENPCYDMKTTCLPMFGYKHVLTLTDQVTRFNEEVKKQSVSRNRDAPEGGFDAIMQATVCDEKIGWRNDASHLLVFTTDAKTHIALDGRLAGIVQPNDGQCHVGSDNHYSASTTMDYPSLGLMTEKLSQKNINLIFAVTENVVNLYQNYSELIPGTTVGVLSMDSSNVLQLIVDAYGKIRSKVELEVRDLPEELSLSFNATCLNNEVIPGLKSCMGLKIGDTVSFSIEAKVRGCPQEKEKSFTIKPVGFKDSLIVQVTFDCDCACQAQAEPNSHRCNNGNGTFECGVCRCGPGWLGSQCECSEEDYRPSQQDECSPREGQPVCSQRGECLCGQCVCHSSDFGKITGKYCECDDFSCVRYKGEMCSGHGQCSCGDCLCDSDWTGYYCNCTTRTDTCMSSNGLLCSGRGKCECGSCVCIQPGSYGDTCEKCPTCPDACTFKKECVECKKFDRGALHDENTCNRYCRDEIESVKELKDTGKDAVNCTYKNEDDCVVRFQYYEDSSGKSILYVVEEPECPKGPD
substance,measurement,setting,value
αVβ3 Integrin (receptor),Frequency with which sweeps yielded an IV curve,[1],10.5%
same,Frequency with which sweeps yielded an IV curve,[2],0%
same,"Peak Conductance (nS), Binding Mode NS-S",[3],0.38 nS
same,Kd,[4],10 nM
same,Frequency with which sweeps yielded an IV curve,[5],35.9%
same,Frequency with which sweeps yielded an IV curve,[6],23.7%
